The supplement of paper PMC7125110
± gives the standard error. This sample holds only a part of the variants without activity.

B1: glmS ribozyme (parent)
chain: AUAAAAGCGCCAGAACUACAGAAAUGUAGUUGACGAGGAGGAGGUUUAUCGAAUUUUCGGCGGAUGCCUCCAAA

How the values were obtained:
Settings in all cases: with glucosamine-6-phosphate
glucosamine-6-phosphate [1] = variants of: B1; assay: self-cleavage kobs at 40 uM GlcN6P; higher = faster cleavage; RNA array
In short: (§1)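 Glucosamine-6-phosphate (40 μM to 10 mM) in HEPES/KCl/Mg(OAc)2 buffer was flowed over sequenced MiSeq chips, and tiles were imaged over ~14 h. Barcoded ribozyme variants there had been transcribed in situ by E. coli RNA polymerase and were tracked through a hybridised Cy3 probe at 37 °C. One- or two-exponential decay fits to per-tile medians, normalised to baseline and to non-cleaving reference variants, gave kobs. kcat and KM came from weighted Michaelis–Menten fits across concentrations.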

glucosamine-6-phosphate [2] = variants of: B1; assay: self-cleavage kobs at 10000 uM GlcN6P; higher = faster cleavage; RNA array
In short: as §1

glucosamine-6-phosphate [3] = variants of: B1; assay: self-cleavage kobs at 160 uM GlcN6P; higher = faster cleavage; RNA array
In short: as §1

glucosamine-6-phosphate [4] = variants of: B1; assay: self-cleavage kobs at 640 uM GlcN6P; higher = faster cleavage; RNA array
In short: as §1

glucosamine-6-phosphate [5] = variants of: B1; assay: self-cleavage kobs at 2500 uM GlcN6P; higher = faster cleavage; RNA array
In short: as §1

Variant | self-cleavage kobs at 40 uM GlcN6P (glucosamine-6-phosphate [1]) [s⁻¹] | self-cleavage kobs at 10000 uM GlcN6P (glucosamine-6-phosphate [2]) [s⁻¹] | self-cleavage kobs at 160 uM GlcN6P (glucosamine-6-phosphate [3]) [s⁻¹] | self-cleavage kobs at 640 uM GlcN6P (glucosamine-6-phosphate [4]) [s⁻¹] | self-cleavage kobs at 2500 uM GlcN6P (glucosamine-6-phosphate [5]) [s⁻¹]
C16A G38A | < 1e-05 | – | – | – | –
A6C C10U U30G A52G | < 1e-05 | < 1e-05 | – | – | –
A14G G44C C61A C68G | < 1e-05 | – | – | – | –
U31G A33G U56C | < 1e-05 | – | < 1e-05 | < 1e-05 | < 1e-05
G35C A48G C50A | < 1e-05 | – | – | – | –
C16A G59C | < 1e-05 | – | – | < 1e-05 | –
G32A A36C U45C C70U | < 1e-05 | < 1e-05 | – | – | –
C8U G43A U56C | < 1e-05 | < 1e-05 | – | – | –
G29U A33U G38C G40A | < 1e-05 | – | – | – | –
U30C G44A | < 1e-05 | < 1e-05 | < 1e-05 | < 1e-05 | –
U31G C61G | < 1e-05 | < 1e-05 | < 1e-05 | < 1e-05 | –
G44C U45C | < 1e-05 | – | < 1e-05 | – | –
C16G G29U U46G | 4.6e-05 ± 1.8e-05 | 0.00136 ± 0.00039 | – | – | –
G35U A52C | < 1e-05 | < 1e-05 | – | – | –
G44A C67U | 0.000707 ± 7e-05 | 0.0388 ± 0.0061 | 0.00265 ± 0.00064 | 0.00449 ± 0.0011 | 0.006 ± 0.0018
G32U A52G C68G | 0.000277 ± 9.2e-05 | 0.000398 ± 9.5e-05 | – | – | –
G35A C50G C71U | 0.000138 ± 3.5e-05 | 0.000191 ± 3.6e-05 | – | – | 8.9e-05 ± 3.1e-05
A14G C71A | 0.000515 ± 6.3e-05 | – | 0.000688 ± 0.00011 | 0.00337 ± 0.00085 | 0.0123 ± 0.0037
C16U G63U G66A | < 1e-05 | < 1e-05 | – | – | –
A6C C34A | < 1e-05 | < 1e-05 | < 1e-05 | < 1e-05 | < 1e-05
C10U U54A U57C | < 1e-05 | – | – | – | –
G37U A39G | < 1e-05 | – | – | – | < 1e-05
G13U U31C C50G G63U | < 1e-05 | – | – | – | –
C11U G13A A33C A53U | < 1e-05 | – | – | – | –

Variant | self-cleavage kobs at 40 uM GlcN6P (glucosamine-6-phosphate [1]) [s⁻¹] | self-cleavage kobs at 10000 uM GlcN6P (glucosamine-6-phosphate [2]) [s⁻¹] | self-cleavage kobs at 160 uM GlcN6P (glucosamine-6-phosphate [3]) [s⁻¹] | self-cleavage kobs at 640 uM GlcN6P (glucosamine-6-phosphate [4]) [s⁻¹] | self-cleavage kobs at 2500 uM GlcN6P (glucosamine-6-phosphate [5]) [s⁻¹]
C67U C71G | 1.88e-05 ± 9.1e-06 | 5.12e-05 ± 5.1e-06 | 3.83e-05 ± 1.2e-05 | 4.78e-05 ± 5.4e-06 | 0.00068 ± 0.00033
C11A A14U A36U U46A | < 1e-05 | < 1e-05 | – | – | < 1e-05
A53G C67A | 0.000314 ± 3.3e-05 | 0.00957 ± 0.0018 | – | 0.00067 ± 0.00014 | 0.000612 ± 0.00025
G38U A48C C71G | < 1e-05 | < 1e-05 | – | – | –
A6G A52G A53G C67G | 6.36e-05 ± 3.1e-05 | – | – | 0.00028 ± 0.00011 | –
A6C A12C G59C | < 1e-05 | < 1e-05 | – | < 1e-05 | –
C50U A52C | < 1e-05 | < 1e-05 | < 1e-05 | – | < 1e-05
G37A G51C | < 1e-05 | < 1e-05 | < 1e-05 | < 1e-05 | < 1e-05
U47A U57G C58U C70U | < 1e-05 | – | – | – | –
A6U G35C G51C U65G | < 1e-05 | – | – | – | –
G7C G29C G35U | < 1e-05 | < 1e-05 | – | < 1e-05 | –
G13U U56A G59U | < 1e-05 | – | – | – | –
C8U A15G G35U C67U | < 1e-05 | – | – | – | –
A12U U49C | < 1e-05 | – | – | – | < 1e-05
C34G C58G | < 1e-05 | < 1e-05 | < 1e-05 | < 1e-05 | –
C50G G63C C71U | 7.02e-05 ± 2.9e-05 | – | – | – | –
A6C G9A | < 1e-05 | < 1e-05 | – | – | –
G9C C67G | < 1e-05 | < 1e-05 | < 1e-05 | < 1e-05 | < 1e-05
G35C U56G C58A U69A | < 1e-05 | – | < 1e-05 | – | < 1e-05
C11G G62A | < 1e-05 | – | – | – | –
C16U U54C | 0.000813 ± 0.00013 | 0.0254 ± 0.0047 | 0.00146 ± 0.00024 | 0.00641 ± 0.001 | 0.00606 ± 0.0012
G32U U69G | 7.55e-05 ± 1.7e-05 | 9.29e-05 ± 1.7e-05 | – | 0.000345 ± 8.4e-05 | –
A48G C61U G66C C70U | < 1e-05 | – | – | – | –
G41U G60U | < 1e-05 | < 1e-05 | < 1e-05 | < 1e-05 | –

Variant | self-cleavage kobs at 40 uM GlcN6P (glucosamine-6-phosphate [1]) [s⁻¹] | self-cleavage kobs at 10000 uM GlcN6P (glucosamine-6-phosphate [2]) [s⁻¹] | self-cleavage kobs at 160 uM GlcN6P (glucosamine-6-phosphate [3]) [s⁻¹] | self-cleavage kobs at 640 uM GlcN6P (glucosamine-6-phosphate [4]) [s⁻¹] | self-cleavage kobs at 2500 uM GlcN6P (glucosamine-6-phosphate [5]) [s⁻¹]
A36U C61A C67U | 5.22e-05 ± 2.3e-05 | – | – | – | –
A6G G32C | < 1e-05 | < 1e-05 | < 1e-05 | < 1e-05 | –
G51C C61A | < 1e-05 | < 1e-05 | – | < 1e-05 | < 1e-05
C34U G40U | < 1e-05 | < 1e-05 | < 1e-05 | – | < 1e-05
C10A A48G U49G | < 1e-05 | < 1e-05 | < 1e-05 | < 1e-05 | < 1e-05
G35A U56C C58U | < 1e-05 | < 1e-05 | – | – | –
C50G G59U C67G | 0.000108 ± 1.9e-05 | 5.5e-05 ± 1.5e-05 | – | – | 0.000245 ± 5.2e-05
U49G U55G U65G | < 1e-05 | 6.42e-05 ± 1.5e-05 | – | – | –
A12C G35U U47C A48U | < 1e-05 | < 1e-05 | – | < 1e-05 | –
C16G G40A A64C | < 1e-05 | < 1e-05 | – | – | –
G29C C58U C71U | < 1e-05 | 5.59e-05 ± 1.7e-05 | – | – | –
G38C U65G | < 1e-05 | – | < 1e-05 | < 1e-05 | –
A1U U2G A3G C8G A12U G63C C68A | < 1e-05 | < 1e-05 | – | – | < 1e-05
A42C U49A G63C | < 1e-05 | – | – | – | –
C10A C34G | < 1e-05 | < 1e-05 | – | < 1e-05 | < 1e-05
G44C C61U | < 1e-05 | < 1e-05 | < 1e-05 | < 1e-05 | < 1e-05
G44U G51C | < 1e-05 | < 1e-05 | < 1e-05 | < 1e-05 | < 1e-05
U45G G63U | < 1e-05 | < 1e-05 | < 1e-05 | < 1e-05 | < 1e-05
A6U A52C | < 1e-05 | < 1e-05 | < 1e-05 | < 1e-05 | < 1e-05
A6U C16U G32C A42U U57G | < 1e-05 | – | – | – | –
C8G A64G | < 1e-05 | < 1e-05 | < 1e-05 | – | < 1e-05
U56A C68U | 0.000143 ± 2.2e-05 | 0.00472 ± 0.00088 | 0.000404 ± 8.3e-05 | 0.000955 ± 0.00014 | 0.00101 ± 0.00018
C10U A36C U56C | < 1e-05 | – | – | – | –
C16G G21U | 0.00012 ± 5.7e-05 | – | – | – | –

Variant | self-cleavage kobs at 40 uM GlcN6P (glucosamine-6-phosphate [1]) [s⁻¹] | self-cleavage kobs at 10000 uM GlcN6P (glucosamine-6-phosphate [2]) [s⁻¹] | self-cleavage kobs at 160 uM GlcN6P (glucosamine-6-phosphate [3]) [s⁻¹] | self-cleavage kobs at 640 uM GlcN6P (glucosamine-6-phosphate [4]) [s⁻¹] | self-cleavage kobs at 2500 uM GlcN6P (glucosamine-6-phosphate [5]) [s⁻¹]
G38A C58U G59U | < 1e-05 | < 1e-05 | – | – | –
U47A G60A | < 1e-05 | – | < 1e-05 | – | < 1e-05
C10A G38U | < 1e-05 | – | < 1e-05 | < 1e-05 | –
A14G G29U A36G | < 1e-05 | – | – | – | –
A6G U45A G60C | < 1e-05 | < 1e-05 | – | – | –
C50G G63A C68A U69C | 0.000106 ± 2.3e-05 | 0.000147 ± 2.8e-05 | – | – | –
C11U G29C C34A G37U | < 1e-05 | – | – | < 1e-05 | –
G7U G13U A53G | < 1e-05 | – | – | – | –
A6G A14G A39C | < 1e-05 | 0.000209 ± 4.5e-05 | – | – | 9.9e-05 ± 2.3e-05
C10U G62A | < 1e-05 | < 1e-05 | – | < 1e-05 | –
A15U G29A G43A | < 1e-05 | < 1e-05 | – | – | –
G59C U65A | < 1e-05 | < 1e-05 | < 1e-05 | < 1e-05 | –
G29U G37C A39G U56A C61G | < 1e-05 | – | – | – | –
C8U G13C G51A | < 1e-05 | < 1e-05 | – | – | < 1e-05
C8A U31G | < 1e-05 | < 1e-05 | < 1e-05 | < 1e-05 | < 1e-05
A36U A39U C50U C61G U65A | < 1e-05 | < 1e-05 | – | – | –
C10A A15U C16U C34U | < 1e-05 | – | – | – | –
U65A C71A | 5.65e-05 ± 2.4e-05 | 0.00104 ± 0.00039 | – | – | 0.0012 ± 0.00041
U46G U47G C67A | 7.27e-05 ± 2e-05 | 0.0021 ± 0.00039 | – | – | –
U54C U56A | 0.000356 ± 6.9e-05 | 0.0163 ± 0.0038 | 0.000584 ± 0.00011 | 0.00291 ± 0.00036 | 0.00483 ± 0.00092
A6C A39G G41A U46A A64G | < 1e-05 | < 1e-05 | – | – | –
A36G A39U G43C C61G | < 1e-05 | – | – | – | –
A42G A52U C70A | < 1e-05 | – | < 1e-05 | – | –
G43C A48U C50U C58A C67U | < 1e-05 | – | – | < 1e-05 | –
